In the assay the target is T1, ADAMTS7-T8 (human, UniProt Q9UKP4 237-1630).
T1 construct: signal peptide in the construct; human ADAMTS7 cDNA including the native signal peptide, truncated after Pro-1630 (T8); The construct is made as a zymogen; The stated enzyme concentrations are active protease, found by active-site titration with TIMP-4; also called purified ADAMTS7-T8; source: HEK cells stably expressing ADAMTS7-T8, conditioned medium, purified (anion exchange chromatography, gel …)
T1 sequence (looked up): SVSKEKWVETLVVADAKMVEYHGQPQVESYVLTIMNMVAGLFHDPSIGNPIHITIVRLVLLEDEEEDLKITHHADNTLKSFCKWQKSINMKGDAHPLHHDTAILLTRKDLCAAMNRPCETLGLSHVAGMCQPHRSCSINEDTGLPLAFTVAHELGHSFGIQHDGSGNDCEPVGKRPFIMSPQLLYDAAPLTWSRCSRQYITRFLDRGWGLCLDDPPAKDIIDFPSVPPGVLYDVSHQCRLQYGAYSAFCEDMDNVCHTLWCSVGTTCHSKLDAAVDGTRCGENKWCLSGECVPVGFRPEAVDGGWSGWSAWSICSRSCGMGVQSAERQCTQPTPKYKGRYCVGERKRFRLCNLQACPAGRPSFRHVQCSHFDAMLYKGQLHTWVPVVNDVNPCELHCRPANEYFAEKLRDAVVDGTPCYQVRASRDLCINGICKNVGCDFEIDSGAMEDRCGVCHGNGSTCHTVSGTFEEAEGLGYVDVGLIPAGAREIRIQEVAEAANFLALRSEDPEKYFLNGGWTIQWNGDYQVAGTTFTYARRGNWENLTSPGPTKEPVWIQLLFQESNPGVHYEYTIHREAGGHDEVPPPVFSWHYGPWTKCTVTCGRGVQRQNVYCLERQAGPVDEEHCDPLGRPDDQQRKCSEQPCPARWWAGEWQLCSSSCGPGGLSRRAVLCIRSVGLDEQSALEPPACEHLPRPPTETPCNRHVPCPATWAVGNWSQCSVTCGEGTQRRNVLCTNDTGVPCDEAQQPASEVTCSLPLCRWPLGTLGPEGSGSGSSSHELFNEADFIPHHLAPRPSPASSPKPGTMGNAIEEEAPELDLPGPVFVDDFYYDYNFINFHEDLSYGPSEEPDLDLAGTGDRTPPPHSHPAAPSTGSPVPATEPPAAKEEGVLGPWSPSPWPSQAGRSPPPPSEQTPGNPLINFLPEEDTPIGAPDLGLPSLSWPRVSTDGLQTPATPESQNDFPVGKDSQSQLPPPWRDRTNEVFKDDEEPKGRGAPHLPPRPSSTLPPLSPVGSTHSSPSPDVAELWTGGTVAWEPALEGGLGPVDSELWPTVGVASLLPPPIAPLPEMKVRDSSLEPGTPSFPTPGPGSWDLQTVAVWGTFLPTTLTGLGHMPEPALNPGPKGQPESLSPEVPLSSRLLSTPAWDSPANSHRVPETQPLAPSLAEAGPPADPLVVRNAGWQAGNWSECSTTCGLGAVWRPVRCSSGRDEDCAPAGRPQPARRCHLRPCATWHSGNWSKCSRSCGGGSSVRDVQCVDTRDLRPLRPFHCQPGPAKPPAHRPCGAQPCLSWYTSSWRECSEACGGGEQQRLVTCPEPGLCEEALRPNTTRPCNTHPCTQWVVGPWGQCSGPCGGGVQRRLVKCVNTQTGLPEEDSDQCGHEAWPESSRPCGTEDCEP
Put plainly: enzyme inhibition assay (densitometry of LTBP4S-A cleavage on SDS-PAGE/Coomassie Blue); apparent Ki; TIMP (1.75-60 nM) pre-incubated with ADAMTS7-T8 for 1 h at 37 °C, then 18 nM ADAMTS7 and 10 μM LTBP4S-A for 17 h at 37 °C; 20 mM Tris, pH 7.5, 150 mM NaCl, 10 mM CaCl2. The settings on record: both partners purified.

B1: TIMP-3 (natural protein, human, UniProt P35625 24-211, looked up)
chain: CTCSPSHPQDAFCNSDIVIRAKVVGKKLVKEGPFGTLVYTIKQMKMYRGFTKMPHVQYIHTEASESLCGLKLEVNKYQYLLTGRVYDGKMYTGLCNFVERWDQLTLSQRKGLNYRYHLGCNCKIKSCYYLPCFVTSKNECLWTDMLSNFGYPGYQSKHYACIRQKGGYCSWYRGWAPPDKSIINATDP
notes: recombinant human TIMP-3 (R&D Systems); No catalogue number or tags are stated; source: bought: R&D Systems (recombinant human)
With B1, the Ki is 49 nM.

B2: TIMP-4 (natural protein, human, UniProt Q99727 30-224, looked up)
chain: CSCAPAHPQQHICHSALVIRAKISSEKVVPASADPADTEKMLRYEIKQIKMFKGFEKVKDVQYIYTPFDSSLCGVKLEANSQKQYLLTGQVLSDGKVFIHLCNYIEPWEDLSLVQRESLNHHYHLNCGCQITTCYTVPCTISAPNECLWTDWLLERKLYGYQAQHYVCMKHVDGTCSWYRGHLPLRKEFVDIVQP
notes: recombinant human TIMP-4 (R&D Systems); No catalogue number or tags are stated; source: bought: R&D Systems (recombinant human)
On to B2, for which the Ki came out at 13 nM.

(Values after PMC6527163, “Proteomic discovery of substrates of the cardiovascular protease ADAMTS7” (The Journal of Biological Chemistry, 2019).)
